Variants at the floor of the assay were thinned out.
Key:
biotinyl-Met-oxazolone = assay: self-aminoacylation, catalytic enhancement (BMO) (fold over background); higher = more active; k-Seq, kA / k0A0; sequences stand for … in GGGAAUGGAUCCACAUCUACGAAUUC…UUCACUGCAGACUUGACGAAGCUG
Outline: (§1)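 Mutagenized RNA pools with a 21-nt variable region (0.43 μM) reacted with each biotinyl-aminoacyl-oxazolone at 2–1250 μM. Reactions ran in 50 μL HEPES/NaCl/KCl/MgCl2/CaCl2 buffer with 5% acetonitrile, pH 6.9–7.0, for 90 minutes at room temperature. Streptavidin-captured RNA was quantified by triplicate qPCR and Illumina sequencing, and per-sequence fraction reacted was fit to a pseudo-first-order model with 1000 bootstraps. Catalytic enhancement is median kA divided by the uncatalyzed rate, the low-activity peak of a bimodal Gaussian fit.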

biotinyl-Phe-oxazolone = assay: self-aminoacylation, catalytic enhancement (BFO) (fold over background); higher = more active; k-Seq, kA / k0A0; sequences stand for … in GGGAAUGGAUCCACAUCUACGAAUUC…UUCACUGCAGACUUGACGAAGCUG
Outline: as §1

biotinyl-Ile-oxazolone = assay: self-aminoacylation, catalytic enhancement (BIO) (fold over background); higher = more active; k-Seq, kA / k0A0; sequences stand for … in GGGAAUGGAUCCACAUCUACGAAUUC…UUCACUGCAGACUUGACGAAGCUG
Outline: as §1

biotinyl-Trp-oxazolone = assay: self-aminoacylation, catalytic enhancement (BWO) (fold over background); higher = more active; k-Seq, kA / k0A0; sequences stand for … in GGGAAUGGAUCCACAUCUACGAAUUC…UUCACUGCAGACUUGACGAAGCUG
Outline: as §1

biotinyl-Leu-oxazolone = assay: self-aminoacylation, catalytic enhancement (BLO) (fold over background); higher = more active; k-Seq, kA / k0A0; sequences stand for … in GGGAAUGGAUCCACAUCUACGAAUUC…UUCACUGCAGACUUGACGAAGCUG
Outline: as §1

biotinyl-Val-oxazolone = assay: self-aminoacylation, catalytic enhancement (BVO) (fold over background); higher = more active; k-Seq, kA / k0A0; sequences stand for … in GGGAAUGGAUCCACAUCUACGAAUUC…UUCACUGCAGACUUGACGAAGCUG
Outline: as §1

| Sequence | self-aminoacylation (biotinyl-Met-oxazolone) | self-aminoacylation (biotinyl-Phe-oxazolone) | self-aminoacylation (biotinyl-Ile-oxazolone) | self-aminoacylation (biotinyl-Trp-oxazolone) | self-aminoacylation (biotinyl-Leu-oxazolone) | self-aminoacylation (biotinyl-Val-oxazolone) |
| --- | --- | --- | --- | --- | --- | --- |
| AUUACCCUGGUCAUGGAGUGC [Fam2.1 aminoacylation ribozyme variant] | 0.858 | 0.89 | 1.05 | 0.556 | 1.24 | 1.17 |
| AUUACCCUGGUCAUGGAGUGU [Fam2.1 aminoacylation ribozyme variant] | 2.46 | 3.83 | 1.72 | 2.57 | 2.73 | 1.98 |
| AUUACCCUGGUCAUGGAGUUA [Fam2.1 aminoacylation ribozyme variant] | 1.23 | 0.664 | 1.04 | 0.695 | 0.899 | 1.13 |
| AUUACCCUGGUCAUGGGGUGA [Fam2.1 aminoacylation ribozyme variant] | 8.63 | 66.9 | 4.02 | 9.45 | 10.1 | 4.17 |
| AUUACCCUGGUCAUGUAGUGA [Fam2.1 aminoacylation ribozyme variant] | 1.97 | 4.73 | 1.77 | 2.4 | 2 | 1.81 |
| AUUACCCUGGUCAUUGAGUGA [Fam2.1 aminoacylation ribozyme variant] | 9.01 | 44.1 | 4.27 | 10.8 | 8.58 | 4.49 |
| AUUACCCUGGUCAUUGAGUGC [Fam2.1 aminoacylation ribozyme variant] | 0.995 | 1.08 | 0.962 | 0.798 | 1.15 | 0.993 |
| AUUACCCUGGUCAUUGGGUGA [Fam2.1 aminoacylation ribozyme variant] | 12.1 | 93.4 | 5.58 | 12.9 | 13.1 | 5.6 |
| AUUACCCUGGUCCUAGAGUGA [Fam2.1 aminoacylation ribozyme variant] | 9.27 | 45.8 | 4.03 | 10.8 | 9.4 | 4.85 |
| AUUACCCUGGUCCUCGAGAGA [Fam2.1 aminoacylation ribozyme variant] | 0.757 | 0.376 | 0.884 | 0.889 | 1.32 | 1.28 |
| AUUACCCUGGUCCUCGAGCGA [Fam2.1 aminoacylation ribozyme variant] | 1.97 | 3.24 | 1.46 | 1.68 | 1.25 | 1.77 |
| AUUACCCUGGUCCUCGAGUAA [Fam2.1 aminoacylation ribozyme variant] | 0.966 | 0.542 | 1.35 | 1.64 | 1.33 | 1.36 |
| AUUACCCUGGUCCUCGAGUGA [Fam2.1 aminoacylation ribozyme variant] | 3.43 | 6.54 | 2.07 | 3.77 | 3.55 | 2.24 |
| AUUACCCUGGUCCUCGAGUGU [Fam2.1 aminoacylation ribozyme variant] | 2.78 | 2.62 | 1.59 | 3.02 | 3.22 | 1.73 |
| AUUACCCUGGUCGUCGGGUGA [Fam2.1 aminoacylation ribozyme variant] | 3.87 | 26.3 | 2.86 | 5.14 | 4.72 | 2.98 |
| AUUACCCUGGUCUUCGACUGA [Fam2.1 aminoacylation ribozyme variant] | 0.832 | 0.68 | 0.992 | 0.675 | 0.717 | 0.737 |
| AUUACCCUGGUGAACGAGUGA [Fam2.1 aminoacylation ribozyme variant] | 2.47 | 2.79 | 1.42 | 2.82 | 2.25 | 1.65 |
| AUUACCCUGGUGAUCAAGUGA [Fam2.1 aminoacylation ribozyme variant] | 3.19 | 8.79 | 1.81 | 4.2 | 3.25 | 1.92 |
| AUUACCCUGGUGAUCGAAUGA [Fam2.1 aminoacylation ribozyme variant] | 0.846 | 0.432 | 0.957 | 0.949 | 1.02 | 1.09 |
| AUUACCCUGGUGAUCGAGUGA [Fam2.1 aminoacylation ribozyme variant] | 5.19 | 25.1 | 2.56 | 5.95 | 5.14 | 2.69 |
| AUUACCCUGGUGAUCGAGUGG [Fam2.1 aminoacylation ribozyme variant] | 1.79 | 3.23 | 1.11 | 1.82 | 1.63 | 1.26 |
| AUUACCCUGGUUAUCGAGUUA [Fam2.1 aminoacylation ribozyme variant] | 1.15 | 0.868 | 0.945 | 0.319 | 1.01 | 0.885 |
| AUUACCCUGGUUAUCGUGUGA [Fam2.1 aminoacylation ribozyme variant] | 2.4 | 15 | 1.27 | 2.76 | 2.3 | 1.49 |
| AUUACCCUGGUUAUUGAGUGA [Fam2.1 aminoacylation ribozyme variant] | 14.4 | 102 | 6.24 | 17.8 | 15.1 | 6.4 |
| AUUACCCUGUUCAUAGAGUGA [Fam2.1 aminoacylation ribozyme variant] | 15.6 | 110 | 6.48 | 18 | 14.6 | 6.44 |
| AUUACCCUGUUGAUCGAGUGA [Fam2.1 aminoacylation ribozyme variant] | 12.5 | 78.3 | 5.62 | 16.8 | 13 | 5.71 |

| Sequence | self-aminoacylation (biotinyl-Met-oxazolone) | self-aminoacylation (biotinyl-Phe-oxazolone) | self-aminoacylation (biotinyl-Ile-oxazolone) | self-aminoacylation (biotinyl-Trp-oxazolone) | self-aminoacylation (biotinyl-Leu-oxazolone) | self-aminoacylation (biotinyl-Val-oxazolone) |
| --- | --- | --- | --- | --- | --- | --- |
| AUUACCCUUGGCAUCGAGUGA [Fam2.1 aminoacylation ribozyme variant] | 6 | 31.7 | 2.75 | 8.88 | 6.72 | 3.39 |
| AUUACCCUUGUCAUCGAGUAA [Fam2.1 aminoacylation ribozyme variant] | 1.36 | 0.935 | 1.19 | 1.53 | 1.22 | 1.13 |
| AUUACCCUUGUCAUCGAGUCA [Fam2.1 aminoacylation ribozyme variant] | 0.756 | 0.6 | 0.895 | 0.591 | 0.708 | 0.841 |
| AUUACCCUUGUCAUCGAGUGG [Fam2.1 aminoacylation ribozyme variant] | 2.03 | 1.98 | 1.25 | 1 | 1.85 | 1.54 |
| AUUACCCUUGUCAUCGAGUGU [Fam2.1 aminoacylation ribozyme variant] | 2.89 | 8.43 | 1.71 | 3.65 | 3.08 | 2.03 |
| AUUACCGGGGUCAUCGAGUGA [Fam2.1 aminoacylation ribozyme variant] | 5.81 | 33.8 | 3.48 | 6.27 | 6.14 | 3.67 |
| AUUACCGUGGGCAUCGAGUGA [Fam2.1 aminoacylation ribozyme variant] | 5.35 | 34.7 | 3.09 | 5.68 | 6.2 | 3.22 |
| AUUACCGUGGUCAUCGACUGA [Fam2.1 aminoacylation ribozyme variant] | 0.911 | 0.518 | 1.06 | 0.507 | 0.742 | 1.11 |
| AUUACCGUGGUCAUCGAGUGA [Fam2.1 aminoacylation ribozyme variant] | 6.27 | 35.1 | 3.39 | 7.62 | 6.4 | 3.68 |
| AUUACCGUGGUCAUCGAGUGC [Fam2.1 aminoacylation ribozyme variant] | 0.762 | 2.57 | 0.895 | 1 | 1.08 | 1.05 |
| AUUACCGUGGUCAUCGAGUUA [Fam2.1 aminoacylation ribozyme variant] | 0.946 | 0.524 | 1.09 | 0.691 | 0.897 | 1.02 |
| AUUACCGUGGUCAUCGGGUGA [Fam2.1 aminoacylation ribozyme variant] | 11.7 | 105 | 7.08 | 17.3 | 11.9 | 8.1 |
| AUUACCGUGGUCUUCGAGUGA [Fam2.1 aminoacylation ribozyme variant] | 5.14 | 27 | 2.96 | 6.36 | 5.05 | 3.21 |
| AUUACCGUUGUCAUCGAGUGA [Fam2.1 aminoacylation ribozyme variant] | 7.75 | 40.2 | 4.49 | 9.94 | 8.01 | 4.16 |
| AUUACCUUGAUCAUCGAGUGA [Fam2.1 aminoacylation ribozyme variant] | 8.63 | 37.6 | 3.94 | 10.7 | 8.21 | 4.44 |
| AUUACCUUGCUCAUCGAGUGA [Fam2.1 aminoacylation ribozyme variant] | 2.29 | 4.55 | 1.68 | 3.02 | 2.31 | 1.82 |
| AUUACCUUGGUAAUCGAGUGA [Fam2.1 aminoacylation ribozyme variant] | 7.66 | 40 | 3.52 | 8.42 | 8.08 | 3.87 |
| AUUACCUUGGUCAACGAGUGA [Fam2.1 aminoacylation ribozyme variant] | 6.26 | 17.5 | 3.57 | 6.5 | 6 | 3.54 |
| AUUACCUUGGUCACCGAGUGA [Fam2.1 aminoacylation ribozyme variant] | 6.15 | 23.4 | 2.87 | 6.72 | 6.74 | 3.11 |
| AUUACCUUGGUCAGCGAGUGA [Fam2.1 aminoacylation ribozyme variant] | 5.05 | 21.5 | 3.26 | 6.84 | 5.38 | 3.08 |
| AUUACCUUGGUCAUCGAGAGA [Fam2.1 aminoacylation ribozyme variant] | 0.957 | 0.809 | 0.924 | 0.946 | 0.907 | 1.19 |
| AUUACCUUGGUCAUCGCGUGA [Fam2.1 aminoacylation ribozyme variant] | 17.3 | 130 | 7.37 | 19.5 | 19.2 | 9.23 |
| AUUACCUUGGUCAUCGGGUGA [Fam2.1 aminoacylation ribozyme variant] | 9.54 | 53.3 | 5.69 | 10.8 | 10.6 | 6.05 |
| AUUACCUUGGUCUUCGAGUGA [Fam2.1 aminoacylation ribozyme variant] | 6.13 | 32.9 | 3.43 | 7.78 | 6.52 | 4.04 |
| AUUACCUUGGUUAUCGAGUGA [Fam2.1 aminoacylation ribozyme variant] | 8.15 | 44.2 | 3.66 | 9.73 | 7.92 | 4.03 |

Source: the supplement of paper PMC9233669
